Assay results: the DeepSol protein solubility set

Assay: soluble on expression in E. coli; label from the status in PepcDB or PDB records
In the case of “MHHHHHHGKPIPNPLLGLDSTENLYFQGIDPFTKAYAFGFPKIGEKREFKKALEDFWKGKITEEQFEEEMNKLRMYMVENYRKNVDVIPSNELSYYDFVLDTAVMVGAVPERFGEYRGLSTYFDMARGGKALEMTKFFNTNYHYLVPEIETEEFYLLENKPLEDYLFFKSKGIETAPWVIGPFTFLYLSKRNGEWIRRPNQMEKLLESLVSVYKEVFEKLVENGCKEILVNEPAFVCDLEKAHWDLILNVYRELSEFPLTVFTYYDSVSDYEACVSLPVKRLHFDFVSNEENLKNLEKHGFPEDKKLVAGVINGRQPWKVDLRKVASLVEKLGASAISNSCPLFHLPVTLELENNLPGGLKEKLAFAKEKLEELKMLKDFLEGKTFDLPNVSFEDFAVDLQAVERVRNLPEDSFRREKEYTERDRIQRERLNLPLFPTTTIGSFPQTPEVRKMRSKYRKGEISKEEYEAFIKEQIKKAIELQEEIGLDVLVHGEFERTDMVEFFAEKLNGIATTQNGWVLSYGSRCYRPPIIYGTVTRPEPMTLKEITYAQSLTEKPVKGMLTGPVTIMSWSYYREDIPEREIAYQIALAINEEVKDLEEAGIKIVQIDEPAFREKAPIKKSKWPEYFEWAINAFNLAANARPETQIHAHMCYSDFNEIIEYIHQLEFDVISIEASRSKGEIISAFENFKGWIKQIGVGVWDIHSPAVPSINEMREIVERVLRVLPKELIWINPDCGLKTRNWDEVIPSLRNMVALAKEMREKFES”, the “soluble on expression in E. coli” value is reported as “soluble”.
With “MHHHHHHMKEVVSSVYKEILVKLGLTEDRIETLEMKGGIIEDEFDGIRYVRFKDSAGKLRRGTVVIDEEYVIPGFPHIKRIINLRSGIRRIFKRGEFYVEEKVDGYNVRVVMYKGKMLGITRGGFICPFTTERIPDFVPQEFFKDNPNLILVGEMAGPESPYLVEGPPYVKEDIQFFLFDVQEIKTGRSLPVEERLKIAEEYGINHVEVFGKYTKDDVDELYQLIERLSKEGREGIIMKSPDMKKIVKYVTPYANINDIKIGARVFYELPPGYFTSRISRLAFYLAEKRIKGEEFERVAKELGSALLQPFVESIFDVEQEEDIHELFKVRVKRIETAYKMVTHFEKLGLKIEIVDIEEIKDGWRITFKRLYPDATNEIRELIGGKAFVD” the “soluble on expression in E. coli” value was “soluble”.
In the case of “MHHHHHHSSGRENLYFQGNFDYMFKLLIIGNSSVGKTSFLFRYADDTFTPAFVSTVGIDFKVKTVYRHEKRVKLQIWDTAGQERYRTITTAYYRGAMGFILMYDITNEESFNAVQDWATQIKTYSWDNAQVILVGNKCDMEEERVVPTEKGQLLAEQLGFDFFEASAKENISVRQAFERLVDAICDKMSDS”, the “soluble on expression in E. coli” value is reported as “soluble”.
For “MHHHHHHSSGRENLYFQGTFAERYNIVCMLGKGSFGEVLKCKDRITQQEYAVKVINKASAKNKDTSTILREVELLKKLDHPNIMKLFEILEDSSSFYIVGELYTGGELFDEIIKRKRFSEHDAARIIKQVFSGITYMHKHNIVHRDLKPENILLESKEKDCDIKIIDFGLSTCFQQNTKMKDRIGTAYYIAPEVLRGTYDEKCDVWSAGVILYILLSGTPPFYGKNEYDILKRVETGKYAFDLPQWRTISDDAKDLIRKMLTFHPSLRITATQCLEHPWIQKYSSETPTISDLPSLESAMTNIRQFQAEKKLAQAALLYMASKLTTLDETKQLTEIFRKLDTNNDGMLDRDELVRGYHEFMRLKGVDSNSLIQNEGSTIEDQIDSLMPLLDMDGSGSIEYSEFIASAIDRTILLSRERMERAFKMFDKDGSGKISTKELFKLFSQADSSIQMEELESIIEQVDNNKDGEVDFNEFVEMLQNFVRNE”, the “soluble on expression in E. coli” value was “soluble”.
With “MHHHHHHSSGVDLGTENLYFQSMAAGGDHGSPDSYRSPLASRYASPEMCFVFSDRYKFRTWRQLWLWLAEAEQTLGLPITDEQIREMKSNLENIDFKMAAEEEKRLRHDVMAHVHTFGHCCPKAAGIIHLGATSCYVGDNTDLIILRNALDLLLPKLARVISRLADFAKERASLPTLGFTHFQPAQLTTVGKRCCLWIQDLCMDLQNLKRVRDDLRFRGVKGTTGTQASFLQLFEGDDHKVEQLDKMVTEKAGFKRAFIITGQTYTRKVDIEVLSVLASLGASVHKICTDIRLLANLKEMEEPFEKQQIGSSAMPYKRNPMRSERCCSLARHLMTLVMDPLQTASVQWFERTLDDSANRRICLAEAFLTADTILNTLQNISEGLVVYPKVIERRIRQELPFMATENIIMAMVKAGGSRQDCHEKIRVLSQQAASVVKQEGGDNDLIERIQVDAYFSPIHSQLDHLLDPSSFTGRASQQVQRFLEEEVYPLLKPYESVMKVKAE” the “soluble on expression in E. coli” value was “soluble”.
With “MHHHHHHSSGVDLGTENLYFQSMASSHLNKGIKQVYMSLPQGEKVQAMYIWIDGTGEGLRCKTRTLDSEPKCVEELPEWNFDGSSTLQSEGSNSDMYLVPAAMFRDPFRKDPNKLVLCEVFKYNRRPAETNLRHTCKRIMDMVSNQHPWFGMEQEYTLMGTDGHPFGWPSNGFPGPQGPYYCGVGADRAYGRDIVEAHYRACLYAGVKIAGTNAEVMPAQWEFQIGPCEGISMGDHLWVARFILHRVCEDFGVIATFDPKPIPGNWNGAGCHTNFSTKAMREENGLKYIEEAIEKLSKRHQYHIRAYDPKGGLDNARRLTGFHETSNINDFSAGVANRSASIRIPRTVGQEKKGYFEDRRPSANCDPFSVTEALIRTCLLNETG” the “soluble on expression in E. coli” value was “soluble”.
In the case of “MHHHHHHSSGVDLGTENLYFQSMMASQNSFRIEYDTFGELKVPNDKYYGAQTVRSTMNFKIGGVTERMPTPVIKAFGILKRAAAEVNQDYGLDPKIANAIMKAADEVAEGKLNDHFPLVVWQTGSGTQTNMNVNEVISNRAIEMLGGELGSKIPVHPNDHVNKSQSSNDTFPTAMHIAAAIEVHEVLLPGLQKLHDALDAKSKEFAQIIKIGRTHTQDAVPLTLGQEFSGYVQQVKYAMTRIKAAMPRIYELAAGGTAVGTGLNTRIGFAEKVAAKVAALTGLPFVTAPNKFEALAAHDALVELSGAMNTTACSLMKIANDIRFLGSGPRSGLGELILPENEPGSSIMPGKVNPTQCEAMTMVAAQVMGNHVAVTVGGSNGHFELNVFKPMMIKNVLHSARLLGDASVSFTENCVVGIQANTERINKLMNESLMLVTALNPHIGYDKAAKIAKTAHKNGSTLKETAIELGYLTAEQFDEWVKPKDMLGPK”, the “soluble on expression in E. coli” value is reported as “soluble”.
With “MHHHHHHSSGVDLGTENLYFQSMVKPAGPTVEQQGEMARSGGRMLATLEPEQRAEIIHHLADLLTDQRDEILLANKKDLEEAEGRLAAPLLKRLSLSTSKLNSLAIGLRQIAASSQDSVGRVLRRTRIAKNLELEQVTVPIGVLLVIFESRPDCLPQVAALAIASGNGLLLKGGKEAAHSNRILHLLTQEALSIHGVKEAVQLVNTREEVEDLCRLDKMIDLIIPRGSSQLVRDIQKAAKGIPVMGHSEGICHMYVDSEASVDKVTRLVRDSKCEYPAACNALETLLIHRDLLRTPLFDQIIDMLRVEQVKIHAGPKFASYLTFSPSEVKSLRTEYGDLELCIEVVDNVQDAIDHIHKYGSSHTDVIVTEDENTAEFFLQHVDSACVFWNASTRFSDGYRFGLGAEVGISTSRIHARGPVGLEGLLTTKWLLRGKDHVVSDFSEHGSLKYLHENLPIPQRNTN” the “soluble on expression in E. coli” value was “soluble”.
With “MHHHHHHSSGVDLGTENLYFQSNAMELKDYYAILGVQPTDDLKTIKTAYRRLARKYHPDVSKENDAEAKFKDLAEAWEVLKDEQRRAEYDQLWQHRNDPGFGRQRQTHEQSYSQQDFDDIFSSMFGQQAHQRRRQHAARGHDLEIEVAVFLEETLAEQTRTISYNLPVYNVFGMIESETPKTLNVKIPAGVVDGQRIRLKGQGTPGENGGPNGDLWLVIHIAPHPLFDIVGHNLEIVLPLAPWEAALGAKVTVPTLKESILLTVPPGSQAGQRLRIKGKGLVSKTHTGDLFAVIKIVMPTKPDEKARELWQQLAAAEASFDPRKTWGKA” the “soluble on expression in E. coli” value was “soluble”.
For “MHHVYVIECSDGTYYTGYTTDVQRRVAEHNAGDGAKYTRGRTPVTLRHTESFDSKSEAMRREYRIKQLSRAQKEALFLEHHHHHH”, the “soluble on expression in E. coli” value was “soluble”.
For “MHKLLISLMMLLSFQAFSQVQEYTLNNGLKVLVKEDHRAPVVVSMIWYNVGSADEPVGITGVSHAIEHMMFKGTSKYPVGVFSKTIAALGGQENAFTNNDYTAYYEKLDAGHLATSFELEADRMNNLLLNSEEFAKEIKVIQEERRLRTDNNPQALAFERFLATAHLTAPYNHPVIGWMNDLKQMKVEDLKKWYESYYAPNNATLVVVGDVNPEKVHALAEHYFGSIAKRPIASRKPQQEPSALGKKMVYINAPAKLPLLLIGYTVPSVKTAKNNWEPYALEIIAGILDAGESARFAKHLVRGNQVATGAEAYYNLYSRYQSQFIVYGAPSQDHQIKDLEKALITELEALKKAPVSNQELQRVKNQIIAQKTFEKDSIFGQAMELGLLETIGLGWKNTETYTKAINEITPEQIQQVAQRYFQENNMTVAELKPIRQEEVRP”, the “soluble on expression in E. coli” value was “not soluble”.
In the case of “MHLHISSIPHRNSNNSKGGVLDATGPMLSAKRGALLLQAYHRPGEVISYKAGDYHLVPKKFTVGKRIAVRSYLDRNRTELSDRTFMPQKNWFRPYDLQDGCFDRDHERLSYRFYNLETKVIWKAFDTPELIGMLLHDETVKGNSGMYAPDMLDAALHYTREARYWRCIGITKPFYDRNTLRAHCWEDNGLQVGTLVMSQAMRHALMDLERAVRRKELGLEPNYLWDRWGPIGFIDGARADYLPRFEHNPYVDPDGVDVTEIDVLPFNTHEQIRERYRDFIEPDTAPFEEVFRSPSHGSLTTLADIPNASVVALYKDLKLKAGTPVAGDAVELAPADVRTLFYLSANPEWRAVADGKASWEEVVDAMQPVQAELDEKIDAARLLQNTRHNAERVRAFFEEKCGFHDFMYTPDKTITAAVLCYLTELRRICTETAWGAALAKCLTDMERVQGMGRDAFLVYRHIEDAILDKKRRLWAGRFAGESHEESTLDYLLENFGRRAERPRNVGTTGVEFDREQEPIGRQVQRRVLDSDKANKLAEIRRSRGKMWSKKRSVFDALHEKQLQNFNYGVH”, the “soluble on expression in E. coli” value is reported as “soluble”.
In the case of “MHPDQKKTFKEKNDIRKKLFNSTKEERLDWRKMKDEKKRKNEEKIIKEAEEAKKAKIEKVDHTPPFTISIAVPGQFLNNAQSAELRTYMAGQIARAATLYRVDEIIIYDESCRMTDEAVNAYYNGTWQGNLIPAETNYEGCFYLAKILEYLECPQYLRKDLFPIQKPLKNAGLLNPLDAQHHLKYDEKTLRFREGVVLKKRSKDGRGPICNIGLEKEFEIDSDAVQLPPYTRVTVEIKNLTEQCKLYRGSITSGATVTRETGLYWGYSVRLMTGLQKVLQAKKFDIVAGVSPRGKLASQMDVCILNKPKILLVFGGVAGVDAAVESEELAEWRRAEDAFDVLIRTTSLSNGSRSERVEENVLSVLAQVQCHLETLNAL”, the “soluble on expression in E. coli” value is reported as “not soluble”.
In the case of “MHQLWTYDPAAGTVEVGAGTTNEGLVDGPGEEAWFAQPSGLAATADRLWLADSETSALRWVDLDGAVHTAVGTGLFDFGHRDGDAEQALLQHPLGVTALPDGSVAVSDTYNHALRRYDPATGEVTTLATDLREPSDAVLVGDDIVVVESARHRLTRLRLPEEAVRVASVAHRTQRAATEVAPGRLQLDVIFQAPAGQKLDTRYGPSTRLLVSSTPPELLLNGEGADPDLSRTLELNPAIPEGVLHVSAMAASCDDDPANEYPACHVHQQDWGVPVRLTEGGADRLPLVLAGMDALEHHHHHH”, the “soluble on expression in E. coli” value is reported as “not soluble”.
For “MHQRCNTRGGQDMGFDSRAAKKLKAMFKQQCRDAGAVCWLCGQPINYDAPPNSRDSFEPDHFYPQATHPELAEDPENLRPSHCSCNRSRKDGVPAPSLGSLSEQW”, the “soluble on expression in E. coli” value was “not soluble”.
For “MHRVHGTLHASFTIECRNMFKRFFLALIGVGILLSESTQASESPPYSMVLLTENFPPFNMAVDGKNFAQENNIDGIAAEVVREMFKRANIGYSMTLRFPWDRVYKLALDKPGYGVFSTTRLPEREKLFKWIGPLGSYDWIMLARGDSPITLASLEQAKDYRIGAYKGDAIGERLNAMGLNPILMLRDRDNVKKLANGQIDLWAVGDPVGRYLAKLEGVSGFKTALRFNSAELYLAVNKSTPDEIVNRLQAALDQMRTEGWVDAVKARYQLEHHHHHH”, the “soluble on expression in E. coli” value was “soluble”.
